# Results as given in paper PMC4804749.
# Target: His111 (UniProt position 111, …)
# Assay: NMR
# Settings: 288 K
protein,measurement,setting,value
KTNMKHMAGA [Prion protein fragment PrP(106-115) (Homo sapiens)],pKa,,∼5
same,pKa,"Free peptide, no copper, 0.3 mM peptide",6.2
